Columns and labels:
Assay in all cases: direct ELISA
[1] = biological target: T1, lymphotoxin a (UniProt P01374 35-205)
T1 construct: also called lymphotoxin alpha
T1 sequence (looked up): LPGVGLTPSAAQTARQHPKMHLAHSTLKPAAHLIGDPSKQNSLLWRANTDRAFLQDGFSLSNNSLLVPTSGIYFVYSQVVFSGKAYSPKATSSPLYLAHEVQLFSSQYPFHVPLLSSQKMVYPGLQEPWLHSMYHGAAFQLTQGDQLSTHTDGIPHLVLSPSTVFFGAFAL

[2] = biological target: T2, IL-17C (UniProt Q9P0M4 19-197)
T2 sequence (looked up): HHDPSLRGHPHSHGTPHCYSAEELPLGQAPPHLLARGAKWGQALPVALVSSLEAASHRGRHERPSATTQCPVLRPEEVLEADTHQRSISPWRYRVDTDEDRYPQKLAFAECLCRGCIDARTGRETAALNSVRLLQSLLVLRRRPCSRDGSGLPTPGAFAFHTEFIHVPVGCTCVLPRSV

[3] = biological target: T3, IL-17B (UniProt Q9UHF5 21-180)
T3 sequence (looked up): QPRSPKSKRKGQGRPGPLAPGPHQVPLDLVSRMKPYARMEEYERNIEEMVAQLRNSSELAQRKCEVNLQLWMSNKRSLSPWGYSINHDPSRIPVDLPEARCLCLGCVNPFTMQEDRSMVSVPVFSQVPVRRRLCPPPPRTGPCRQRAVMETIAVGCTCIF

[4] = biological target: T4, EDA-A2 (UniProt Q92838-3 245-389, limits assumed)
T4 sequence (looked up): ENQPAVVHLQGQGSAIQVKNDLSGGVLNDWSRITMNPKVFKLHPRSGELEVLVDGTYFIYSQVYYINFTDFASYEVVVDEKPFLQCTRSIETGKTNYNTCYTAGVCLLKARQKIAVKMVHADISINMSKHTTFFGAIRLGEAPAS

[5] = biological target: LIGHT (UniProt O43557 74-240, limits assumed)
[6] = biological target: T5, TWEAK (UniProt O43508 94-249, limits assumed)
T5 sequence (looked up): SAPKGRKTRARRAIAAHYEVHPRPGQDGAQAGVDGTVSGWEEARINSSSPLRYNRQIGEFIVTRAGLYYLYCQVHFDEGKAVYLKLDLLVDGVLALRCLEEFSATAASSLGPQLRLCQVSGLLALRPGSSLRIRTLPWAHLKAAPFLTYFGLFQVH

[7] = biological target: T6, IL-17D (UniProt Q8TAD2 16-202, limits assumed)
T6 sequence (looked up): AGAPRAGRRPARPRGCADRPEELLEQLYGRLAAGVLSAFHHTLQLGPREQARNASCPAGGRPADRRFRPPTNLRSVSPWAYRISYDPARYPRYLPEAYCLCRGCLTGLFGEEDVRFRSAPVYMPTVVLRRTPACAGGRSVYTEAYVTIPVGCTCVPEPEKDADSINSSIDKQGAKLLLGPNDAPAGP

[8] = biological target: T7, APRIL (UniProt O75888 105-250)
T7 sequence (looked up): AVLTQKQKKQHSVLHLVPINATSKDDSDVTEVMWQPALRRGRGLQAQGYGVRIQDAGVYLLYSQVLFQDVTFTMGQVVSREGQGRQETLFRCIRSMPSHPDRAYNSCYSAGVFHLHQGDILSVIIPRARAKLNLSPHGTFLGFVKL

[9] = biological target: BAFF (UniProt Q9Y275 134-285)
[10] = biological target: T8, OX40 ligand (UniProt P23510 51-183)
T8 sequence (looked up): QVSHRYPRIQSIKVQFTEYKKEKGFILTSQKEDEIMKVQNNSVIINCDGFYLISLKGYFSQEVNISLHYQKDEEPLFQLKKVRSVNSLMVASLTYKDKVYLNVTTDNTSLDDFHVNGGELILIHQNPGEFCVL

[11] = biological target: T9, Fas ligand (UniProt P48023 134-281, limits assumed)
T9 sequence (looked up): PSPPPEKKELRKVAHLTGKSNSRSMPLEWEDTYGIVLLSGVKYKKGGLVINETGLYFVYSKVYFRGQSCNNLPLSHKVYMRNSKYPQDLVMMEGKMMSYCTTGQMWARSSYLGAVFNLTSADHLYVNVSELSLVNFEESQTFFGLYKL

[12] = biological target: T10, RANK ligand (UniProt O14788 140-317)
T10 sequence (looked up): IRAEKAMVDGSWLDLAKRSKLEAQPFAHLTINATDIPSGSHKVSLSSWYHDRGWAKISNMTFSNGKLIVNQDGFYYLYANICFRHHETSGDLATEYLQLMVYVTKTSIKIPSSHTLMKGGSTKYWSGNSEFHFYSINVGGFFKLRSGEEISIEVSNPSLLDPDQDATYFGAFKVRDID

[13] = biological target: T11, IL-17E (IL-25) (UniProt Q9H293 33-177)
T11 sequence (looked up): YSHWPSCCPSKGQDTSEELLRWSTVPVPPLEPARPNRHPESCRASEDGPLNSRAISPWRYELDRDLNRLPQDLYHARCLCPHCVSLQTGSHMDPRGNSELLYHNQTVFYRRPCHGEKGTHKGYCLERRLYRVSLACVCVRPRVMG

[14] = biological target: T12, GITR ligand (UniProt Q9UNG2 52-177)
T12 sequence (looked up): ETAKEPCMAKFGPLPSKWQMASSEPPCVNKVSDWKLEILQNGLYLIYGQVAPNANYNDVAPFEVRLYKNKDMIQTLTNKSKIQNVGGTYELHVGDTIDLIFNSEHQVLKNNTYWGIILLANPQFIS

[15] = biological target: T13, TL1A (UniProt O95150 72-251)
T13 sequence (looked up): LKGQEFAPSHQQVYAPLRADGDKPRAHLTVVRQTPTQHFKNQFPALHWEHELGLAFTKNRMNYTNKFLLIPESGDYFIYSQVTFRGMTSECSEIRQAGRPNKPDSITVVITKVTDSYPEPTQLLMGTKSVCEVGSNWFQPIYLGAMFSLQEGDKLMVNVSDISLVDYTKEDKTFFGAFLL

[16] = biological target: 4-1BB ligand (UniProt P41273 71-254, limits assumed)

Measured: binding result

Sequence of BAFF (Q9Y275 134-285 limits assumed): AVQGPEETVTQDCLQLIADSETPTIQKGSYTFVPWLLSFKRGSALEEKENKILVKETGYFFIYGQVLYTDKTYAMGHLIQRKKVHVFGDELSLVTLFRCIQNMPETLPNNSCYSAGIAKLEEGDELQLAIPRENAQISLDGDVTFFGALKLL
Sequence of 4-1BB ligand (P41273 71-254 limits assumed): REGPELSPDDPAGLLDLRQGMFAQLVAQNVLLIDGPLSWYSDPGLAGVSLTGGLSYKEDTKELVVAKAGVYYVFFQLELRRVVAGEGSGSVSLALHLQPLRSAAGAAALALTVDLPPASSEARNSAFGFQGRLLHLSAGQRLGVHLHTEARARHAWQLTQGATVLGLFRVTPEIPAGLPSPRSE
Sequence of LIGHT (O43557 74-240 limits assumed): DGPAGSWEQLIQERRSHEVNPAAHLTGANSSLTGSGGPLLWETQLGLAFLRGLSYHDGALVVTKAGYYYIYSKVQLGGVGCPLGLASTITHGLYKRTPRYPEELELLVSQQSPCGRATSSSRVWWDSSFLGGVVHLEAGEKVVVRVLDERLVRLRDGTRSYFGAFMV

B1: ABBV-257 anti-human TNF and IL-17 DVD-Ig binding protein (bispecific antibody, human IgG1, kappa, L234A L235A)
heavy: EVQLVQSGAEVKKPGASVKVSCKASGYTFANYGIIWVRQAPGQGLEWMGWINTYTGKPTYAQKFQGRVTMTTDTSTSTAYMELSSLRSEDTAVYYCARKLFTTMDVTDNAMDYWGQGTTVTVSSGGGGSGGGGSEVQLVQSGAEVKKPGSSVKVSCKASGYTFTDYEIHWVRQAPGQGLEWMGVNDPESGGTFYNQKFDGRVTLTADESTSTAYMELSSLRSEDTAVYYCTRYSKWDSFDGMDYWGQGTTVTVSSASTKGPSVFPLAPSSKSTSGGTAALGCLVKDYFPEPVTVSWNSGALTSGVHTFPAVLQSSGLYSLSSVVTVPSSSLGTQTYICNVNHKPSNTKVDKKVEPKSCDKTHTCPPCPAPEAAGGPSVFLFPPKPKDQLMISRTPEVTCVVVDVSHEDPEVKFNWYVDGVEVHNAKTKPREEQYNSTYRVVSVLTVLHQDWLNGKEYKCKVSNKALPAPIEKTISKAKGQPREPQVYTLPPSREEMTKNQVSLTCLVKGFYPSDIAVEWESNGQPENNYKTTPPVLDSDGSFFLYSKLTVDKSRWQQGNVFSCSVLHEALHNHYTQKSLSLSPGK
light: DIQMTQSPSSLSASVGDRVTITCRASQDISQYLNWYQQKPGKAPKLLIYYTSRLQSGVPSRFSGSGSGTDFTLTISSLQPEDFATYFCQQGNTWPPTFGQGTKLEIKRGGSGGGGSGDIQMTQSPSSLSASVGDRVTITCRASSGIISYIDWFQQKPGKAPKRLIYATFDLASGVPSRFSGSGSGTDYTLTISSLQPEDFATYYCRQVGSYPETFGQGTKLEIKRTVAAPSVFIFPPSDEQLKSGTASVVCLLNNFYPREAKVQWKVDNALQSGNSQESVTEQDSKDSTYSLSSTLTLSKADYEKHKVYACEVTHQGLSSPVTKSFNRGEC
modifications: N-linked glycans on the heavy chain at the asparagine commonly modified on IgG1 antibodies (fucosylated biantennary oligosaccharides with 0, 1 or 2 galactose residues)
notes: It says the constant region carries L234A, L235A and also T250Q and M428L; also called Anti-IL-17/TNF DVD-Ig Protein
no binding: all assays above
